Assay results: patent US9126993B2, “Glucosylceramide synthase inhibitors” (GENZYME CORPORATION, priority 2011, dated 2015)
Entries after “also recorded” stand apart in the source; their conditions may differ.

Experiments:
[1] = system: Fabry mice; assay: Substrate reduction therapy in Fabry mouse model: Gb3 and lyso-Gb3 levels; assay type: in vivo; settings: Fabry mice, in diet for 4 months starting at 8 months old; GZ 452 60 mg/kg/day, GZ 638 300 mg/kg/day
Protocol: In the following experiments, mice dosed with GCS inhibitors at either ˜60 mg/kg/day of (S)-Quinuclidin-3-yl(2-(2-(4-fluorophenyl)thiazol-4-yl)propan-2-yl)carbamate (S)-2-hydroxysuccinate salt (hereinafter “GZ 452”) or ˜300 mg/kg/day of (1R,2R)-Octanoic acid[2-(2′,3′-dihydro-benzo[1,4] dioxin-6′-yl)-2-hydroxy-1-pyrrolidin-1-ylmethyl-ethyl]-amide-L-tartaric acid salt (hereinafter “GZ 638”) as a component of the pelleted food diet provided ad libitum. Lipid analysis was by ESI/MS as described in Marshall et al., PLoS ONE 5:e15033 (2010). As discussed in further detail below, treatment started when the mice were 3, 8 or 12 months of age to test the efficacy at different disease severities. Blood and urine was collected monthly and periodic tissue harvests provided materials to evaluate efficacy of the therapy (Gb3 and lyso-Gb3 levels). […] As further discussed below, the efficacy of SMT was affected by the age of the mice at the start of treatment. Generally, the older the mouse, the higher the levels of Gb3 stored and thus a longer period of treatment was required in order to affect similar therapeutic benefit (see FIG. 4). The experiments and results are described further below.
In this experiment, Fabry mice were treated with GCS inhibitors in their diet for 4 months starting at 8 months old. […] Age-matched wild-type levels (WT) are also shown. […]

[2] = system: Fabry mice; assay: Thermal nociceptive response (55° C. hotplate) in Fabry mice; assay type: in vivo, mouse; settings: 10 month old Fabry mice after 7 months of treatment
Protocol: Three month old Fabry mice were treated with GZ 452 in their diet (SRT), αgal once every 2 months (ERT), or a combination of the 2 treatments (E+S), as described above. […]

[3] = system: Fabry mice; assay: Combination therapy (ERT + SRT) in Fabry mouse model: plasma and urine Gb3 and lyso-Gb3; assay type: in vivo; settings: Fabry mice treated 2 months from 3 months of age; ERT 1 mg/kg iv every 2 months; SRT GZ 452 ~60 mg/kg/day in diet
Description: Fabry mice were used to test the in vivo efficacy of combining enzyme replacement therapy with small molecule therapy in a concurrent treatment format. The study was designed to evaluate whether substrate inhibition (i.e. “substrate reduction therapy”) using the GZ 452 compound could reduce re-accumulation of the storage material Gb3 and lyso-Gb3. The study protocol called for three distinct treatment groups of 3 month old male Fabry mice (FIG. 6A). The first group received intravenous injections of alpha-galactosidase A enzyme (ERT) at 1 mg/kg to reduce Gb3 levels and was repeated every 2 months. The second group received the same enzyme injections as group 1, but also were dosed with GZ 452 at ˜60 mg/kg/day as a component of the pelleted diet. The third group received only the daily dosing of GZ 452 in their diet. A fourth group received no treatment to serve as vehicle controls and a fifth group of wild-type animals provided ‘normal’ Gb3 and lyso-Gb3 values. Monthly urine and blood collections and three monthly tissue harvests provide materials to evaluate relative efficacy of the therapies (FIG. 6A).
After 2 months (mice were 5 months old), plasma (FIG. 6B, panels A and C) and urine (FIG. 6B, panels B & D) were analyzed for Gb3 (FIG. 6B, panels A and B) and lyso-Gb3 (FIG. 6B, panels C and D). […] SMT therapy alone or in combination with ERT was also capable of affecting (reducing accumulation) of lyso-Gb3.

[4] = system: K14 mice; settings: neonatal (P1-P3) intracerebroventricular injections, previous experiments (Cabrera-Salazar et al. 2010); cited from earlier work

Molecule: (1R,2R)-Octanoic acid[2-(2′,3′-dihydro-benzo[1,4] dioxin-6′-yl)-2-hydroxy-1-pyrrolidin-1-ylmethyl-ethyl]-amide-L-tartaric acid salt [GZ 638, reference compound]
- Gb3 in visceral tissue (kidney, heart) relative to the starting levels [1]: effective at inhibiting further accumulation of tissue Gb3

B1: ERT: alpha-galactosidase A enzyme (ERT), intravenous injections at 1 mg/kg every 2 months (protein, UniProt P06280 32-429, looked up)
Alpha-galactosidase A: LDNGLARTPTMGWLHWERFMCNLDCQEEPDSCISEKLFMEMAELMVSEGWKDAGYEYLCIDDCWMAPQRDSEGRLQADPQRFPHGIRQLANYVHSKGLKLGIYADVGNKTCAGFPGSFGYYDIDAQTFADWGVDLLKFDGCYCDSLENLADGYKHMSLALNRTGRSIVYSCEWPLYMWPFQKPNYTEIRQYCNHWRNFADIDDSWKSIKSILDWTSFNQERIVDVAGPGGWNDPDMLVIGNFGLSWNQQVTQMALWAIMAAPLFMSNDLRHISPQAKALLQDKDVIAINQDPLGKQGYQLRQGDNFEVWERPLSGLAWAVAMINRQEIGGPRSYTIAVASLGKGVACNPACFITQLLPVKRKLGFYEWTSRLRSHINPTGTVLLQLENTMQMSLKDLL
- thermal nociceptive response time (latency) vs untreated [2]: not significantly different to the untreated group
- plasma Gb3 level [3]: to a greater extent than SMT; also recorded: reduced
- plasma lyso-Gb3 level [3]: reduced
- urine Gb3 level [3]: unaffected

B2: GC: Recombinant human glucocerebrosidase (rhGC), reformulated for ICV administration (protein, UniProt P04062 40-536, looked up)
Lysosomal acid …: ARPCIPKSFGYSSVVCVCNATYCDSFDPPTFPALGTFSRYESTRSGRRMELSMGPIQANHTGTGLLLTLQPEQKFQKVKGFGGAMTDAAALNILALSPPAQNLLLKSYFSEEGIGYNIIRVPMASCDFSIRTYTYADTPDDFQLHNFSLPEEDTKLKIPLIHRALQLAQRPVSLLASPWTSPTWLKTNGAVNGKGSLKGQPGDIYHQTWARYFVKFLDAYAEHKLQFWAVTAENEPSAGLLSGYPFQCLGFTPEHQRDFIARDLGPTLANSTHHNVRLLMLDDQRLLLPHWAKVVLTDPEAAKYVHGIAVHWYLDFLAPAKATLGETHRLFPNTMLFASEACVGSKFWEQSVRLGSWDRGMQYSHSIITNLLYHVVGWTDWNLALNPEGGPNWVRNFVDSPIIVDITKDTFYKQPMFYHLGHFSKFIPEGSQRVGLVASQKNDLDAVALMHPDGSAVVVVLNRSSKDVPLTIKDPAVGFLETISPGYSIHTYLWRRQ
- median survival [4]: 23 days
